Experimental data as given in article PMC10267116, “Structural and functional analysis of a plant nucleolar RNA chaperone-like protein”.

T1: NURC1-FL (Arabidopsis thaliana, UniProt Q9LZ65 1-222)
T1 sequence: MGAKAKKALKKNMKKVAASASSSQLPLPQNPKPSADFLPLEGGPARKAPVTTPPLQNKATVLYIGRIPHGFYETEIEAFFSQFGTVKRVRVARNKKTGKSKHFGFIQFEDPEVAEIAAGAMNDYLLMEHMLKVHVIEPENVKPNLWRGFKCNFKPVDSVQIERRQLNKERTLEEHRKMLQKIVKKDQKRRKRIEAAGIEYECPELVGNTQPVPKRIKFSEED

T2: NURC1 1-160 (Arabidopsis thaliana, UniProt Q9LZ65 1-160)
T2 sequence: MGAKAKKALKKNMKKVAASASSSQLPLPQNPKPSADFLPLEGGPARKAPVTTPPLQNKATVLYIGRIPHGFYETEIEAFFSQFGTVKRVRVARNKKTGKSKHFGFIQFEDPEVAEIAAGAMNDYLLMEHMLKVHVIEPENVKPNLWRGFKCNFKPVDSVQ

B1: ITS2 82-162 (stem III) (structured_RNA)
RNA: GGAGCCAAGGACGCCUGGAGCGUACCGACAUGCGGUGGUGAACUUGAUCCAUUACAUUUUAUCGGUCGCUCUUGUCCGGAA
B2: ITS2 1-79 (stem I and II) (structured_RNA)
RNA: GGAUCGUCGUCCCUCACCAUCCUUUGCUGAUGCGGGACGGAAGCUGGUCUCCCGUGUGUUACCGCACGCGUUGGCCUAAUU

Legend:
[1] = test system: NURC1 1-140 (Arabidopsis thaliana); test: MST; conditions: MST: 10 nM labelled RNA, 20 mM Tris-HCl pH 8.0, 150 mM NaCl, 0.1 mg/ml BSA, 1 mM DTT, 0.1% Tween-20, room temperature, 5 min
NURC1-FL [2] = molecular target: T1, NURC1-FL; test: MST; conditions: MST: 10 nM labelled RNA, 20 mM Tris-HCl pH 8.0, 150 mM NaCl, 0.1 mg/ml BSA, 1 mM DTT, 0.1% Tween-20, room temperature, 5 min
NURC1 1-160 [3] = molecular target: T2, NURC1 1-160; test: MST; conditions: MST: 10 nM labelled RNA, 20 mM Tris-HCl pH 8.0, 150 mM NaCl, 0.1 mg/ml BSA, 1 mM DTT, 0.1% Tween-20, room temperature, 5 min
NURC1-FL [4] = molecular target: T1, NURC1-FL; test: MST; Kd only in figure/Table S5; MST: 10 nM labelled RNA, 20 mM Tris-HCl pH 8.0, 150 mM NaCl, 0.1 mg/ml BSA, 1 mM DTT, 0.1% Tween-20, room temperature, 5 min; conditions: protein: recombinant; tags: N-terminal 6xHis (pET-28a, NdeI/XhoI) removed with thrombin; label: Cy5-UTP incorporated (Cy5-UTP/UTP 1:15)
NURC1 1-160 [5] = molecular target: T2, NURC1 1-160; test: as above; conditions: protein: recombinant; tags: 6xHis (pET-28a) removed with thrombin; label: Cy5-UTP incorporated (Cy5-UTP/UTP 1:15)

Molecule | Kd [1] [nM] | Kd (NURC1-FL [2]) [nM] | Kd (NURC1 1-160 [3]) [nM] | binding result (NURC1-FL [4]) | binding result (NURC1 1-160 [5])
ITS2 FL | 938 | 228 | 116 |  | 
B1 |  |  |  | binds | binds
B2 |  |  |  | binds | binds
